The record followed here is publication PMC11161652, “ASXLs binding to the PHD2/3 fingers of MLL4 provides a mechanism for the recruitment of BAP1 to active enhancers” (Nature Communications, 2024).

Test [1] has as its target T1, PHD2 and PHD3 fingers of human MLL4 (aa 227-324) (human, UniProt O14686 227-324).
T1 chain: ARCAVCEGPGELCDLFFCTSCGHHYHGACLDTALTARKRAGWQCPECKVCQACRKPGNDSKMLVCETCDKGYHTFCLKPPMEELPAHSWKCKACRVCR

Test [2] concerns the target T2, PHD2 and PHD3 fingers of human MLL3 (aa 342-439) (human, UniProt Q8NEZ4 342-439).
T2 chain: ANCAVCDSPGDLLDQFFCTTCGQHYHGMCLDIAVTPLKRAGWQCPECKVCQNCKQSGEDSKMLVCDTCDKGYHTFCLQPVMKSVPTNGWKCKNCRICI

Test [3] deals with T3, PHD2 and PHD3 fingers of human MLL4 (aa 227-324) (human, UniProt O14686 227-324).
T3 construct: PHD2 and PHD3 fingers of human MLL4 (KMT2D), aa 227-324; also called MLL4_(PHD2/3); MLL4 PHD2/3; source: E. coli BL21-CodonPlus, purified (glutathione agarose, PreScission cleavage; unlabeled proteins also SEC)
T3 sequence (looked up): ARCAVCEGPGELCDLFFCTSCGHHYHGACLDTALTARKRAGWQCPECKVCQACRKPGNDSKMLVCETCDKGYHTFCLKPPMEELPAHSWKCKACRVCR
The experiment in a line: not stated; fluorescence spectroscopy or NMR: the legends of Fig. 3c and Fig. 4b say that values marked (a) are from NMR and the others from fluorescence; the text does not tell which for these pairs. The following applies: both partners purified.

In test [4] the target is T4, PHD2 and PHD3 fingers of human MLL3 (aa 342-439) (human, UniProt Q8NEZ4 342-439).
T4 construct: PHD2 and PHD3 fingers of human MLL3 (KMT2C), aa 342-439; 15N-labelled for NMR titrations; also used unlabelled as the titrant against MLL3 PHD4; also called MLL3_(PHD2/3); MLL3 PHD2/3; source: E. coli BL21-CodonPlus, purified (glutathione agarose, PreScission cleavage; unlabeled proteins also SEC)
T4 sequence (looked up): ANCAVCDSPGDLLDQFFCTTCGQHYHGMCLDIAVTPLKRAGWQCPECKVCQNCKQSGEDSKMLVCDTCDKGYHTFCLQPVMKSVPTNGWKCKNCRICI
The experiment in a line: other fluorescence titration; tryptophan fluorescence, 25 °C; 1.0 µM MLL4 PHD2/3 or MLL3 PHD2/3 with increasing peptide; excitation 295 nm; 20 mM Tris pH 7.2, 150 mM NaCl, 1 mM TCEP, 0.02% Tween20; average of three measurements. Conditions: both partners purified.

B1: ASXL2 peptide (aa 650-670) R655I (peptide, UniProt Q76L83 650-670, looked up)
peptide: NRTGAITLADIKAKAQLVKAQ
notes: ASXL2, residues 650-670; R655I is said to be associated with large intestine cancer; also called R655I mutant of ASXL2; source: synthetic peptide (SynPeptide)
One may read the Kd as the equilibrium constant for the complex coming apart. A higher Kd goes with lower affinity. Take B1: the results for the Kd in test [1] and in test [2] were 11 µM and 10.5 µM, respectively. In test [3], the “fold reduction in binding against the wild type ASXL2 peptide” value was ~16 fold. Moreover, the binding result in test [4] was “binds”.
